Results published in US20250381289A1 (Genmab, published 2025).

Columns and labels:
Human EGFR = target: T1, Human EGFR (human, UniProt P00533); assay: ELISA, coated human EGFR, anti-human Fc-HRP
T1 construct: recombinant protein; also called human EGFR recombinant protein
Method: (§1) Binding specificity was tested by ELISA according to the standard protocol. Specifically, 96-well plates were coated with 100 ng/well human EGFR, human HER2, human HER3, human HER4, human cMET, human Sema3A recombinant protein in PBS, incubated overnight at 4° C. Plates were washed twice by TBS+0.05% Tween20. 200 μL blocking buffer (2% BSA in PBS) was added to each well and incubated at 37° C. for 2 h. After wash, Serial diluted antibodies were added to the ELISA plate with 100 μL per well and incubated for 1 h at room temperature. Then plates were washed for 3 times. HRP conjugated anti-human Fc antibody solution (Abcam, ab98624) was added to the plate with 100 μL per well. The plates were incubated at room temperature for 1 h and then washed for 3 times. […] Finally, read the absorbance at A₄₅₀ and A₆₃₀.

Human cMET = target: T2, Human cMET (human); assay: ELISA, coated human cMET, anti-human Fc-HRP
T2 construct: recombinant protein; also called human cMET recombinant protein
Method: as §1

[1] = target: T3, EGFR on EGFR and cMET co-expressed tumor cell lines (UniProt P00533 25-1210, limits assumed); assay: flow cytometry, EBC-1 cells (co-express EGFR and cMET; both arms contribute)
T3 construct: whole, on cells
Method: (§2) EBC-1 was cultured with DMEM medium (Gibco, Cat #C11995500BT) containing 10% FBS. […] Each antibody was incubated with different cell lines (1×10⁵ cells/well) for 30 min in 0.2 mL FACS buffer (1×PBS with 0.1% BSA) at 4° C. After wash, cells were incubated with 100 μL PE-conjugated anti human Fc (Abcam, Ab98596, 1:500 dilution) for 30 min at 4° C. After wash with PBS, cells were resuspended in FACS buffer and analyzed by flow cytometer (Beckman, CytoFLEX).

[2] = target: T4, cMET on EGFR and cMET co-expressed tumor cell lines (UniProt P08581 25-1390, limits assumed); assay: as above
T4 construct: whole, on cells
T4 sequence (P08581 25-1390 limits assumed): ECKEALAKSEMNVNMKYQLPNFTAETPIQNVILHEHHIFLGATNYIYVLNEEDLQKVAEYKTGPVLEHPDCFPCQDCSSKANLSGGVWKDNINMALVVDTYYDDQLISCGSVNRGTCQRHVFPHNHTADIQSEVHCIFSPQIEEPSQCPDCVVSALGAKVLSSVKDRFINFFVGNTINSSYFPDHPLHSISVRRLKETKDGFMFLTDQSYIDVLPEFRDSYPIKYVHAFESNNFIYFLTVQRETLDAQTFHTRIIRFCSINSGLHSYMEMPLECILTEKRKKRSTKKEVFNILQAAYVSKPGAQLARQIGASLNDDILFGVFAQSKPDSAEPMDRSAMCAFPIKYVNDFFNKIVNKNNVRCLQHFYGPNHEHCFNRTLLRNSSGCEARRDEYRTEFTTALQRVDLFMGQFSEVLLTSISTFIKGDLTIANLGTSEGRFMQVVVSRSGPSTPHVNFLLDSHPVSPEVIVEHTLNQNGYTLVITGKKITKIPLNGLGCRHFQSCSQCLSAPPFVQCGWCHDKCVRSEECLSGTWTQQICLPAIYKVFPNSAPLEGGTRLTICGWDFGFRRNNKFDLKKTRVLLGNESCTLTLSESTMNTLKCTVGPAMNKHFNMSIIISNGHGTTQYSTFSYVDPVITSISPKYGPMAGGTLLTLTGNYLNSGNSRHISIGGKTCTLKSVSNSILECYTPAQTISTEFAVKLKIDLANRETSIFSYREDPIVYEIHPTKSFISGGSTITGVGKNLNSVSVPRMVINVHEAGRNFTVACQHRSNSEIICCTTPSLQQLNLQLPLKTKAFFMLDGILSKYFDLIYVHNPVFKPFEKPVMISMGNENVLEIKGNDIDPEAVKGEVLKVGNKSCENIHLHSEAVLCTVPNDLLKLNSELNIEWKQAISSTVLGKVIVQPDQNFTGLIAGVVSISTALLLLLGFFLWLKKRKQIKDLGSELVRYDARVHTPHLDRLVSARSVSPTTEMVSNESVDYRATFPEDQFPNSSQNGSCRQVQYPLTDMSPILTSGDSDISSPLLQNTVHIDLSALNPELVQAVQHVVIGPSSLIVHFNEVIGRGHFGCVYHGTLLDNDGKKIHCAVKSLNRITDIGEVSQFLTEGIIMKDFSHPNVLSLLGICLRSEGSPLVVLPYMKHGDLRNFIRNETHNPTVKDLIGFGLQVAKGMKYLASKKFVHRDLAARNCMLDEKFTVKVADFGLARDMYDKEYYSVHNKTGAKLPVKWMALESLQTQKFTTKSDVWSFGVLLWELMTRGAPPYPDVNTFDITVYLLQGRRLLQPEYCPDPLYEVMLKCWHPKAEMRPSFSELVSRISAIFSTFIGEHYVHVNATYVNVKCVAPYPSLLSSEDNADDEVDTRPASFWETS
Method: as §2

[3] = target: T3, EGFR on EGFR and cMET co-expressed …; assay: flow cytometry, A431 cells (co-express EGFR and cMET; both arms contribute)
[4] = target: T4, cMET on EGFR and cMET co-expressed …; assay: as above
[5] = target: T3, EGFR on EGFR and cMET co-expressed …; assay: flow cytometry, MKN-45 cells (co-express EGFR and cMET; both arms contribute)
Method: as §2

[6] = target: T4, cMET on EGFR and cMET co-expressed …; assay: as above
Method: as §2

[7] = target: T3, EGFR on EGFR and cMET co-expressed …; assay: as above; remark: listed apart in the source
Method: (§3) EBC-1 was cultured with DMEM medium (Gibco, Cat #C11995500BT) containing 10% FBS. […] Each antibody was incubated with different cell lines (1×10⁵ cells/well) for 30 mins in 0.2 mL FACS buffer (1×PBS with 0.1% BSA) at 4° C. After wash, cells were incubated with 100 μL PE-conjugated anti human Fc (Abcam, Ab98596, 1:500 dilution) for 30 mins at 4° C. After wash with PBS, cells were resuspended in FACS buffer and analyzed by flow cytometer (Beckman, CytoFLEX).

[8] = target: T4, cMET on EGFR and cMET co-expressed …; assay: as above; remark: listed apart in the source
Method: as §3

[9] = target: T3, EGFR on EGFR and cMET co-expressed …; assay: flow cytometry, SNU-5 cells (co-express EGFR and cMET; both arms contribute)
[10] = target: T4, cMET on EGFR and cMET co-expressed …; assay: as above
[11] = target: T3, EGFR on EGFR and cMET co-expressed …; assay: flow cytometry, NCI-N87 cells (co-express EGFR and cMET; both arms contribute)
Method: as §3

[12] = target: T4, cMET on EGFR and cMET co-expressed …; assay: as above
Method: as §3

[13] = target: T3, EGFR on EGFR and cMET co-expressed …; assay: flow cytometry on SNU-5 cells (co-express EGFR and cMET), PE anti-human Fc; signal of the whole bispecific, not resolved by arm
Method: (§4) EBC-1, ACHN and CAL-27 were cultured with DMEM medium (Gibco, Cat #C11995500BT) containing 10% FBS. […] Each antibody was incubated with different cell lines (1×10⁵ cells per well) for 30 mins in 0.2 mL FACS buffer (1×PBS with 0.1% BSA) at 4° C. After wash, cells were incubated with 100 μL PE-conjugated anti human Fc (Abcam, Ab98596, 1:500 dilution) for 30 mins at 4° C. After wash with PBS, cells were resuspended in FACS buffer and analyzed by flow cytometer (Beckman, CytoFLEX).

[14] = target: T4, cMET on EGFR and cMET co-expressed …; assay: as above
Method: as §4

[15] = target: T3, EGFR on EGFR and cMET co-expressed …; assay: flow cytometry on CAL-27 cells (co-express EGFR and cMET), PE anti-human Fc; signal of the whole bispecific, not resolved by arm
[16] = target: T3, EGFR on EGFR and cMET co-expressed …; assay: flow cytometry on NCI-H292 cells (co-express EGFR and cMET), PE anti-human Fc; signal of the whole bispecific, not resolved by arm
Method: as §4

[17] = target: T4, cMET on EGFR and cMET co-expressed …; assay: as above
Method: as §4

T2 sequence (P08581 whole entry): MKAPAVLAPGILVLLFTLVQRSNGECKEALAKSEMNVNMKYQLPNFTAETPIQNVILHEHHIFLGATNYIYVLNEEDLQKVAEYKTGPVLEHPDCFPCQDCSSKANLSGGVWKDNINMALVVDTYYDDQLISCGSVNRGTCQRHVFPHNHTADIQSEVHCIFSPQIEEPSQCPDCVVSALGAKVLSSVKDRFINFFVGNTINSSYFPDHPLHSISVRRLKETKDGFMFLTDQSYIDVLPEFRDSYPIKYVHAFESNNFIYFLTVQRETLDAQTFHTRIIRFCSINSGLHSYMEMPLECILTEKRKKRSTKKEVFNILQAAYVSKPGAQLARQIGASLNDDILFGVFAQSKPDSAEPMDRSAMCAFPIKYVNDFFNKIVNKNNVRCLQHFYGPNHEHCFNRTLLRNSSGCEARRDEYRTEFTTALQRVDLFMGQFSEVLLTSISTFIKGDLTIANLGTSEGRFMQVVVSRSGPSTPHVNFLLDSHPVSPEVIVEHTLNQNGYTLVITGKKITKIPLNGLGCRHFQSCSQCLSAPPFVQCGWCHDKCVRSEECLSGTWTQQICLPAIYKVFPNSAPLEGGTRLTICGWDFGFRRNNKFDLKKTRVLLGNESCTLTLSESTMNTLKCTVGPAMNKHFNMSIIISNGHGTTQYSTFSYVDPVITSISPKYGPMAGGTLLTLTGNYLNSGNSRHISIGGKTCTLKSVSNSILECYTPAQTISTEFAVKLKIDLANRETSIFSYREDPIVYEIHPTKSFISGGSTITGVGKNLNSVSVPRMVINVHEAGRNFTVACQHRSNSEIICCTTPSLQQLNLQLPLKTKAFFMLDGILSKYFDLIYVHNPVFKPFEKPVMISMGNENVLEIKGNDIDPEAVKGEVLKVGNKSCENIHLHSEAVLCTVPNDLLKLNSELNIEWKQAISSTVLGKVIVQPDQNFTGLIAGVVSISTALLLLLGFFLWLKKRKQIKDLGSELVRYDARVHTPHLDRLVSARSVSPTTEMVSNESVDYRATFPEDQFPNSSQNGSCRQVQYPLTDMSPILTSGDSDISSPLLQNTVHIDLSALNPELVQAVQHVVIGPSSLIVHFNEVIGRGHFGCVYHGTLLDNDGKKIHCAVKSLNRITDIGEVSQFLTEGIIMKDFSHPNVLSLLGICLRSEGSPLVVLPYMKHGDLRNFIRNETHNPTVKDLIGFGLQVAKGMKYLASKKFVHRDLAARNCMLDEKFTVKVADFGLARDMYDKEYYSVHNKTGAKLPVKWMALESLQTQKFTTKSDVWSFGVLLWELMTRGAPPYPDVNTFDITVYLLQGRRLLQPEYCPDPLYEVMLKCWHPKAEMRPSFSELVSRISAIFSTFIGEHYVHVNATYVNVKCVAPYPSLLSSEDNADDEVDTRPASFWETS

B1: Amivantamab (bispecific antibody, human IgG1, kappa)
heavy 1: not shown
light 1: not shown
heavy 2: not shown
light 2: DIQMTQSPSSVSASVGDRVTITCRASQGISNWLAWFQHKPGKAPKLLIYAASSLLSGVPSRFSGSGSGTDFTLTISSLQPEDFATYYCQQANSFPITFGQGTRLEIKRTVAAPSVFIFPPSDEQLKSGTASVVCLLNNFYPREAKVQWKVDNALQSGNSQESVTEQDSKDSTYSLSSTLTLSKADYEKHKVYACEVTHQGLSSPVTKSFNRGEC
notes: Bispecific positive control
For B1, the “EC50 (read off the curve)” value (Human EGFR) was about 0.6 nM, the “EC50 (read off the curve)” value (Human cMET) was about 1 nM and the “EC50 (read off the curve)” value [1] was about 1 nM. For the same binder, the “EC50 (read off the curve)” value [2] was about 1 nM, the “EC50 (read off the curve)” value [3] was about 4 nM and the “EC50 (read off the curve)” value [4] was about 4 nM. For the same binder, the “EC50 (read off the curve)” value [5] was about 0.5 nM, the “EC50 (read off the curve)” value [6] was about 0.5 nM and the “EC50 (read off the curve)” value [7] was about 2 nM. For the same binder, the “EC50 (read off the curve)” value [8] was about 2 nM, the “EC50 (read off the curve)” value [9] was about 2 nM and the “EC50 (read off the curve)” value [10] was about 2 nM. For the same binder, the “EC50 (read off the curve)” value [11] was about 2 nM, the “EC50 (read off the curve)” value [12] was about 2 nM and the “EC50 (read off the curve)” value [13] was about 3 nM. The “EC50 (read off the curve)” value [14] was about 3 nM, the “EC50 (read off the curve)” value [15] was about 3 nM and the “EC50 (read off the curve)” value [16] was about 3 nM. For the same binder, the “EC50 (read off the curve)” value [17] was about 3 nM.
